According to paper PMC3341524:

Biological target: murine p35-HA alanine/serine-scan mutant A13 (mouse) (UniProt P43431)
Experiment: co-IP

B1: murine Ebi3, triple-FLAG tagged (natural protein)
chain: YTETALVALSQPRVQCHASRYPVAVDCSWTPLQAPNSTRSTSFIATYRLGVATQQQSQPCLQRSPQASRCTIPDVHLFSTVPYMLNVTAVHPGGASSSLLAFVAERIIKPDPPEGVRLRTAGQRLQVLWHPPASWPFPDIFSLKYRLRYRRRGASHFRQVGPIEATTFTLRNSKPHAKYCIQVSAQDLTDYGKPSDWSLPGQVESAPHKP
With B1 the decrease in IL-35 dimer formation against wild type was 30%.
